Measurements: patent publication US10287362
Where two headings read alike, the source gives them in different places.

T1: human CD73 ECD (human, UniProt P21589)
T1 chain: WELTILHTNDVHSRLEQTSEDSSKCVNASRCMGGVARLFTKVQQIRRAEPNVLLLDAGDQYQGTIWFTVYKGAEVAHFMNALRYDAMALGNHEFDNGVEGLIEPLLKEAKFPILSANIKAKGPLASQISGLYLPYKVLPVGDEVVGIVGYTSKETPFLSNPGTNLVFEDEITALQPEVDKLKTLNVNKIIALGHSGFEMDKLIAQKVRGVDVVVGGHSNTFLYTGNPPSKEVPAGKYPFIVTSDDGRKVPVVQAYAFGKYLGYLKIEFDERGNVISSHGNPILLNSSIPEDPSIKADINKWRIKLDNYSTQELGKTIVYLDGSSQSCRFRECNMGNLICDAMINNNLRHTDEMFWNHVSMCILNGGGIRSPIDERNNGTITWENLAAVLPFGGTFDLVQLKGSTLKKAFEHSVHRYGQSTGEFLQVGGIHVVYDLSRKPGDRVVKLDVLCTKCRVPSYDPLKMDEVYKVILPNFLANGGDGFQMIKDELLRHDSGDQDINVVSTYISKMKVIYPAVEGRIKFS

T2: murine CD73 ECD (mouse, UniProt Q61503)
T2 chain: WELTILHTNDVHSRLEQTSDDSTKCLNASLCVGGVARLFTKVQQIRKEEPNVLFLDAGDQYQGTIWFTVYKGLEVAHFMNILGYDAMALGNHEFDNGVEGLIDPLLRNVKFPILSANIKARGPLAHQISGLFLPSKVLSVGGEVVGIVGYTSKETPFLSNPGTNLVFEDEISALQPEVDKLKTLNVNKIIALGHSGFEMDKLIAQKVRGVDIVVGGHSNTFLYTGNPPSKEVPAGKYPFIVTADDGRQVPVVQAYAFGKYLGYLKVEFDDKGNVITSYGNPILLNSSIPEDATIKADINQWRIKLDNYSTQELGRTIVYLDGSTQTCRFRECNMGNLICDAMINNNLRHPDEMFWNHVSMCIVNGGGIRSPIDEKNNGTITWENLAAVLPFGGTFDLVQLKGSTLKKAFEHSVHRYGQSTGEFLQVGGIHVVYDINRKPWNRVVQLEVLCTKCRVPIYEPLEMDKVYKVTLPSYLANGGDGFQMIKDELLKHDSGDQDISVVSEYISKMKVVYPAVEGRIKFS

T3: human CD73 on MDA-MB-231 cells (human, UniProt P21589)
T3 chain: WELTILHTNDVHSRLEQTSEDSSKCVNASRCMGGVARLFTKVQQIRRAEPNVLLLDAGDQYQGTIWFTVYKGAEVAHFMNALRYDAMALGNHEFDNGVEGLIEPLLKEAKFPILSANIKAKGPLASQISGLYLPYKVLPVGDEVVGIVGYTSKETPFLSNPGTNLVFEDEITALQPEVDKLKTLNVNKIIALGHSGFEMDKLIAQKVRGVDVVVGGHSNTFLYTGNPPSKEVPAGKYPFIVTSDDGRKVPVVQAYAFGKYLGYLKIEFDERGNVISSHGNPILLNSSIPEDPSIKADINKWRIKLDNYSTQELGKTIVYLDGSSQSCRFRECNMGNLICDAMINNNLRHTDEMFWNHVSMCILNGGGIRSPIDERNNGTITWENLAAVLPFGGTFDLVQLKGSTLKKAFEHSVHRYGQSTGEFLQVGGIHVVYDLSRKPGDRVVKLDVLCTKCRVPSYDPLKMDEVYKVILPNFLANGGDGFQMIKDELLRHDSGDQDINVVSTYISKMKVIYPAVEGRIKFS

T4: murine CD73 on 4T1 cells (mouse, UniProt Q61503)
T4 chain: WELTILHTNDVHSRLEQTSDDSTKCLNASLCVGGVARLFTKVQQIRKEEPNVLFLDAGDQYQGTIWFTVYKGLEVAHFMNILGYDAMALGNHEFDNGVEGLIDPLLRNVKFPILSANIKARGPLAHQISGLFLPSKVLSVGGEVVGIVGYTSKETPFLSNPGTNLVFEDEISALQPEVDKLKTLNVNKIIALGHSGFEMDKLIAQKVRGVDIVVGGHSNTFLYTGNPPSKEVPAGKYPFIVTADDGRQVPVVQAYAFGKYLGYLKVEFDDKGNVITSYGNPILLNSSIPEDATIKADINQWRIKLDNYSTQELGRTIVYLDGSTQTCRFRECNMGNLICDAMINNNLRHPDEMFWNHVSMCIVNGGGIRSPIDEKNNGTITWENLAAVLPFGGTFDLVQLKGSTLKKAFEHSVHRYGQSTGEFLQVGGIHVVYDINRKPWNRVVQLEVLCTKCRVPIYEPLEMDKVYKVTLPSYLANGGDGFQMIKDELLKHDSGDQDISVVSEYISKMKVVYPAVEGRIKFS

T5: CD73 V144K (human, UniProt P21589)
T5 chain: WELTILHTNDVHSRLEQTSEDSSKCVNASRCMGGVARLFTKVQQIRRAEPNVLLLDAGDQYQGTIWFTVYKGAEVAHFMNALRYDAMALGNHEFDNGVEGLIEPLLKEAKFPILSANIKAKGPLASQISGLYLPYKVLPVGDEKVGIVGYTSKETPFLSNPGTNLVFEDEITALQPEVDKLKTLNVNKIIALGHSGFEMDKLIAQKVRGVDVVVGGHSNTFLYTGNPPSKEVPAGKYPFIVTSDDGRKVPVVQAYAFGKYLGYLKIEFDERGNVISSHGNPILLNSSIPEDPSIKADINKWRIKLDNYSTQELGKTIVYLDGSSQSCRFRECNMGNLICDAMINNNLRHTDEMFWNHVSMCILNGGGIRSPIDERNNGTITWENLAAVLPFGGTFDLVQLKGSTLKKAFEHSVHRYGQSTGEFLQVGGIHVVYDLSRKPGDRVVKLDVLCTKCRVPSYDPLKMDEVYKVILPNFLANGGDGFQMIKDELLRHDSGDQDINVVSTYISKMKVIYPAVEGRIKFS

T6: CD73 N185G (human, UniProt P21589)
T6 chain: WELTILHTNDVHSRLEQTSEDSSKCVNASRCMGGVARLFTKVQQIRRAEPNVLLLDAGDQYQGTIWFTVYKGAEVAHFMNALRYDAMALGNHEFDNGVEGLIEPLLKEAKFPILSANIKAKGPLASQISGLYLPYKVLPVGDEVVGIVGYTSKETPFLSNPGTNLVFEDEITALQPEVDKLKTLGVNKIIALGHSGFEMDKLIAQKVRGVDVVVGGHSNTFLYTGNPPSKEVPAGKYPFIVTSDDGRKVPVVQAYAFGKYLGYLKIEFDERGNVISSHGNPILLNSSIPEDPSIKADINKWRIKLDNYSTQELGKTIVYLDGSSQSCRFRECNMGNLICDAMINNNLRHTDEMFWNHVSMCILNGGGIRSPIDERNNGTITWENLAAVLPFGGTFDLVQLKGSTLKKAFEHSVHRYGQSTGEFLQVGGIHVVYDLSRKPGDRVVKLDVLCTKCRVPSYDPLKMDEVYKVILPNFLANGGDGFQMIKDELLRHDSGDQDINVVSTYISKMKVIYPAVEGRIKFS

T7: CD73 V144K+K180A (human, UniProt P21589)
T7 chain: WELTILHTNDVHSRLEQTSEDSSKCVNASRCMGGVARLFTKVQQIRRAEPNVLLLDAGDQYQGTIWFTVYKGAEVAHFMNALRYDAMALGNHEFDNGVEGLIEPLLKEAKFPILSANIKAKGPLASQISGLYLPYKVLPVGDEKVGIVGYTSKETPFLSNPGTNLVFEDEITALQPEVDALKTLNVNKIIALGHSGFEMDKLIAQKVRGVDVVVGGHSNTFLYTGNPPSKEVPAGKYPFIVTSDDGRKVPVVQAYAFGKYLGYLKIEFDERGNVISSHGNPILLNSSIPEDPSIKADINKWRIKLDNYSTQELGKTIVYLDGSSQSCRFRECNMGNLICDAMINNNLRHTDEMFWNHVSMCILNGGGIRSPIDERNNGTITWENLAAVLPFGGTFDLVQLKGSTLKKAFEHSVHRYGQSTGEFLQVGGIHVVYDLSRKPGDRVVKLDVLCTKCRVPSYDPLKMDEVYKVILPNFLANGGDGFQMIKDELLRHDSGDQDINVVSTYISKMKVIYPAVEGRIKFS

T8: CD73 K180A (human, UniProt P21589)
T8 chain: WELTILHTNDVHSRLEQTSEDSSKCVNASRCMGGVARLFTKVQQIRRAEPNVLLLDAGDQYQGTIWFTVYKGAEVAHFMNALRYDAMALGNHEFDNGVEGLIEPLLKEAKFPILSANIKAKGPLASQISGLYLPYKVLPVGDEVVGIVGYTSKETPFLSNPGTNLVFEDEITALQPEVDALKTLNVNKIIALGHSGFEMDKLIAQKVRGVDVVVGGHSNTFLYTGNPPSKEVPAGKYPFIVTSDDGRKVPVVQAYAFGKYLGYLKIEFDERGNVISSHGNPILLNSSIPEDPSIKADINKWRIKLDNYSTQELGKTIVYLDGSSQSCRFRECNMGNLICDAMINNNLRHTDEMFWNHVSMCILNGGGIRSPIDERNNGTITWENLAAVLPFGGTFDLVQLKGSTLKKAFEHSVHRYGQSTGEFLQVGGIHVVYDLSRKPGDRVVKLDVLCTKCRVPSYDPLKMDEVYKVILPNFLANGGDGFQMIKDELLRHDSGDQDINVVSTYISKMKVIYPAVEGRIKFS

T9: CD73 V144K+N185G (human, UniProt P21589)
T9 chain: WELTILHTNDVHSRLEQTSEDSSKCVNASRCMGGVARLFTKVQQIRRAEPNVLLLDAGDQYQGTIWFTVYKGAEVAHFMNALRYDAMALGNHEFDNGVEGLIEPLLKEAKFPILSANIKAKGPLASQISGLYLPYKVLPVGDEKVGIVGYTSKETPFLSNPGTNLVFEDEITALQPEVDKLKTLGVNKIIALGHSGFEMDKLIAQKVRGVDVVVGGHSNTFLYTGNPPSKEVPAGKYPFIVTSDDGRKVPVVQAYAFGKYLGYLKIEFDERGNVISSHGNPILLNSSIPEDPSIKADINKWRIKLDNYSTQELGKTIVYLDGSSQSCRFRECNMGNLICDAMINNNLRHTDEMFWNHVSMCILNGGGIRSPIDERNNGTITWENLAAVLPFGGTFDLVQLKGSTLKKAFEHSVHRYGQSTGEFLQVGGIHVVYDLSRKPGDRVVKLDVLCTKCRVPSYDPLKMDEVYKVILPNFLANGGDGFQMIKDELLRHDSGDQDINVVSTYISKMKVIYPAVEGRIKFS

T10: CD73 K180A+N185G (human, UniProt P21589)
T10 chain: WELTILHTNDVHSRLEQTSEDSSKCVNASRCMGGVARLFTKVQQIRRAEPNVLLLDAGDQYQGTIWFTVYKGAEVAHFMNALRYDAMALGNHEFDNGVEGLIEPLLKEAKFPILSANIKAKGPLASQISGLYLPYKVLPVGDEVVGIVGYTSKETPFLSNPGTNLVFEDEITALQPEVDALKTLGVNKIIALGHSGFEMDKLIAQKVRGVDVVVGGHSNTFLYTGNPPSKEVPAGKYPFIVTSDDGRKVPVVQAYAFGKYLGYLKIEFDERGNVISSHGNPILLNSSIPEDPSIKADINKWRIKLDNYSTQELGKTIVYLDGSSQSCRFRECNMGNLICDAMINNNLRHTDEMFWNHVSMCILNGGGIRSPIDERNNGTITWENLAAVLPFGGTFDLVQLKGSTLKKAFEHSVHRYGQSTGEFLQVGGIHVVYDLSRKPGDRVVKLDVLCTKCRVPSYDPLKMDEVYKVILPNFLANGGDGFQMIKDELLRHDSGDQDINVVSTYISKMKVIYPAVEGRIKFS


Assays:
human CD73 ECD [1] = molecular target: T1, human CD73 ECD; assay: SPR
murine CD73 ECD [2] = molecular target: T2, murine CD73 ECD; assay: SPR
murine CD73 ECD [3] = molecular target: T2, murine CD73 ECD; assay: SPR
human CD73 ECD [4] = molecular target: T1, human CD73 ECD; assay: SPR
[5] = molecular target: T3, human CD73 on MDA-MB-231 cells; assay: FACS
murine CD73 on 4T1 cells [6] = molecular target: T4, murine CD73 on 4T1 cells; assay: FACS
murine CD73 on 4T1 cells [7] = molecular target: T4, murine CD73 on 4T1 cells; assay: FACS
[8] = molecular target: T3, human CD73 on MDA-MB-231 cells; assay: FACS
CD73 V144K = molecular target: T5, CD73 V144K; assay: SPR, bivalent
CD73 N185G = molecular target: T6, CD73 N185G; assay: SPR, bivalent
CD73 V144K+K180A = molecular target: T7, CD73 V144K+K180A; assay: SPR, bivalent
CD73 K180A = molecular target: T8, CD73 K180A; assay: SPR, bivalent
CD73 V144K+N185G = molecular target: T9, CD73 V144K+N185G; assay: SPR, bivalent
CD73 K180A+N185G = molecular target: T10, CD73 K180A+N185G; assay: SPR, bivalent
human CD73 ECD [9] = molecular target: T1, human CD73 ECD; assay: SPR, bivalent
human CD73 ECD [10] = molecular target: T1, human CD73 ECD

Binder	Kd (human CD73 ECD [1]) [nM]	Kd (murine CD73 ECD [2]) [nM]	Kd (murine CD73 ECD [3]) [nM]	Kd (human CD73 ECD [4]) [nM]	Kd [5] [nM]	Kd (murine CD73 on 4T1 cells [6]) [nM]	Kd (murine CD73 on 4T1 cells [7]) [nM]	Kd [8] [nM]	Kd (CD73 V144K) [nM]	Kd (CD73 N185G) [nM]	Kd (CD73 V144K+K180A) [nM]	Kd (CD73 K180A) [nM]	binding result (CD73 V144K+N185G)	binding result (CD73 K180A+N185G)	Kd (human CD73 ECD [9]) [nM]	Kd (human CD73 ECD [10]) [nM]
MEDI9447 (73combo3, clone 10.3) (antibody, V domains shown) VH: EVQLLESGGGLVQPGGSLRLSCAASGFTFSSYAYSWVRQAPGKGLEWVSAISGSGGRTYYADSVKGRFTISRDNSKNTLYLQMNSLRAEDTAVYYCARLGYGRVDEWGRGTLVTVSS VL: QSVLTQPPSASGTPGQRVTISCSGSLSNIGRNPVNWYQQLPGTAPKLLIYLDNLRLSGVPDRFSGSKSGTSASLAISGLQSEDEADYYCATWDDSHPGWTFGGGTKLTVL	0.0041	0.001	0.0009	0.004	0.154	0.113	0.113	0.154	0.0814	0.0269	2.68	0.0435	no binding	no binding	0.0042	
MEDI9447 Fab (antibody, V domains shown) VH: EVQLLESGGGLVQPGGSLRLSCAASGFTFSSYAYSWVRQAPGKGLEWVSAISGSGGRTYYADSVKGRFTISRDNSKNTLYLQMNSLRAEDTAVYYCARLGYGRVDEWGRGTLVTVSS VL: QSVLTQPPSASGTPGQRVTISCSGSLSNIGRNPVNWYQQLPGTAPKLLIYLDNLRLSGVPDRFSGSKSGTSASLAISGLQSEDEADYYCATWDDSHPGWTFGGGTKLTVL																0.327
